Our source for the Kd values is article PMC2141704.

This experiment has as its target GST-mouse ZO-1 (1–862 amino acids) (mouse) (UniProt P39447). In words: pull-down.
Chain of UniProt P39447 (P39447 1-862): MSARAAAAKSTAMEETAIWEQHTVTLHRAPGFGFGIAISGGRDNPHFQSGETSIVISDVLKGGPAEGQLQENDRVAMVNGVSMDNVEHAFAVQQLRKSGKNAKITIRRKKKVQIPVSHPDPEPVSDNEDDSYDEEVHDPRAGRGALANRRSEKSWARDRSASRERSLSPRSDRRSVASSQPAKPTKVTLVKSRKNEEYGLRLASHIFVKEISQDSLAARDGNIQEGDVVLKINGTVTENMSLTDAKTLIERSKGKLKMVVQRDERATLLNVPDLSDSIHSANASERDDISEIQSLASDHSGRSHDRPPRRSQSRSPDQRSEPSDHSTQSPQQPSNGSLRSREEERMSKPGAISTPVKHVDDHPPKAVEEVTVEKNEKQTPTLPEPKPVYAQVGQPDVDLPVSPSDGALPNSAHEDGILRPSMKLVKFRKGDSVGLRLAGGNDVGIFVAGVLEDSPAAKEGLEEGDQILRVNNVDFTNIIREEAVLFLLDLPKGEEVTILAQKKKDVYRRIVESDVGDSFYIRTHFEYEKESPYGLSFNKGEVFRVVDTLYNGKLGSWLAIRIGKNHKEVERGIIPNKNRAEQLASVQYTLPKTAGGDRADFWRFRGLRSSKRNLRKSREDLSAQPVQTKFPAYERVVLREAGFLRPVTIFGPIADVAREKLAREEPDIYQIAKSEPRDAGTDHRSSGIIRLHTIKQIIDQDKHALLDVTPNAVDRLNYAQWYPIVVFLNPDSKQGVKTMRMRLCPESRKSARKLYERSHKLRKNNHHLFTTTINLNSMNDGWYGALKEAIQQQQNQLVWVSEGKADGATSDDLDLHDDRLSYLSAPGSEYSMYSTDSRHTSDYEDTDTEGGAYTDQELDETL

As for “MBP-AF-6 (36–206 amino acids) (domain or fragment)”, the equilibrium dissociation constant (Kd) was found to be 260 nM.

The Kd is a measure of binding affinity in units of concentration. Low values mean a tighter complex, high ones a looser complex.
